From IntAct's records for PubMed 31515488 come the findings set out here.

To fix the notation:
B1: BUD13 homolog (Homo sapiens), Q9BRD0 (parent)
chain: MAAAPPLSKAEYLKRYLSGADAGVDRGSESGRKRRKKRPKPGGAGGKGMRIVDDDVSWTAISTTKLEKEEEEDDGDLPVVAEFVDERPEEVKQMEAFRSSAKWKLLGGHNEDLPSNRHFRHDTPDSSPRRVRHGTPDPSPRKDRHDTPDPSPRRARHDTPDPSPLRGARHDSDTSPPRRIRHDSSDTSPPRRARHDSPDPSPPRRPQHNSSGASPRRVRHDSPDPSPPRRARHGSSDISSPRRVHNNSPDTSRRTLGSSDTQQLRRARHDSPDLAPNVTYSLPRTKSGKAPERASSKTSPHWKESGASHLSFPKNSKYEYDPDISPPRKKQAKSHFGDKKQLDSKGDCQKATDSDLSSPRHKQSPGHQDSDSDLSPPRNRPRHRSSDSDLSPPRRRQRTKSSDSDLSPPRRSQPPGKKAAHMYSGAKTGLVLTDIQREQQELKEQDQETMAFEAEFQYAETVFRDKSGRKRNLKLERLEQRRKAEKDSERDELYAQWGKGLAQSRQQQQNVEDAMKEMQKPLARYIDDEDLDRMLREQEREGDPMANFIKKNKAKENKNKKVRPRYSGPAPPPNRFNIWPGYRWDGVDRSNGFEQKRFARLASKKAVEELAYKWSVEDM
partner: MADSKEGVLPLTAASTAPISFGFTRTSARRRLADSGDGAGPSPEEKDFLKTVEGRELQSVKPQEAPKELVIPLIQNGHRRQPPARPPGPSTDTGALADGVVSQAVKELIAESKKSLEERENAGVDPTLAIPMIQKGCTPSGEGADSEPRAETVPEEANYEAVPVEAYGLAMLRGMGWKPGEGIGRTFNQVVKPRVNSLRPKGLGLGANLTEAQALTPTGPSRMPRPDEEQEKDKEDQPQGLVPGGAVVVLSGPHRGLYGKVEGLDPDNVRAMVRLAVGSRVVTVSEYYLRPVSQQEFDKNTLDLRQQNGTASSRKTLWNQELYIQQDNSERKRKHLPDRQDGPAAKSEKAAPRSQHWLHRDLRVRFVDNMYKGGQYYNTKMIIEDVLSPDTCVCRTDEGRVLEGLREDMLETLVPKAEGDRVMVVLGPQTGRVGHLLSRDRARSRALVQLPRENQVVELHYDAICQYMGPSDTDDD
B2: SKA complex subunit 1 (Homo sapiens), Q96BD8 (parent)
chain: MASSDLEQLCSHVNEKIGNIKKTLSLRNCGQEPTLKTVLNKIGDEIIVINELLNKLELEIQYQEQTNNSLKELCESLEEDYKDIEHLKENVPSHLPQVTVTQSCVKGSDLDPEEPIKVEEPEPVKKPPKEQRSIKEMPFITCDEFNGVPSYMKSRLTYNQINDVIKEINKAVISKYKILHQPKKSMNSVTRNLYHRFIDEETKDTKGRYFIVEADIKEFTTLKADKKFHVLLNILRHCRRLSEVRGGGLTRYVIT
partner: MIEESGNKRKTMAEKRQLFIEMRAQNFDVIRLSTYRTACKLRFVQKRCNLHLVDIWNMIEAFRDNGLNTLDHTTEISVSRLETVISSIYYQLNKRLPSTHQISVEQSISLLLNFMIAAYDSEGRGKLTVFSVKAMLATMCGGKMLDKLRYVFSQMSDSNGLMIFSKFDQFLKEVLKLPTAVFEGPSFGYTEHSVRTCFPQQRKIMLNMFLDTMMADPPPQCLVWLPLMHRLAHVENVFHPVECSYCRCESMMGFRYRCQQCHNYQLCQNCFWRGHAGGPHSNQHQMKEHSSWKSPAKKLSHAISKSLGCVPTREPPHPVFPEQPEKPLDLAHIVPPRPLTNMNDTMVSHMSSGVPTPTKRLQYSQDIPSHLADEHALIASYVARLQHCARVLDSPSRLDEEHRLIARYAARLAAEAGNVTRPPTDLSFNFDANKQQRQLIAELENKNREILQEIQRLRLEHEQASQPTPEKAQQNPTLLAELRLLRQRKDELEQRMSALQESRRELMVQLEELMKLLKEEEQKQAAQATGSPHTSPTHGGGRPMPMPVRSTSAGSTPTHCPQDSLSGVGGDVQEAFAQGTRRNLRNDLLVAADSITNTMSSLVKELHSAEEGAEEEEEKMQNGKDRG
B3: Keratin, type II cytoskeletal 79 (Homo sapiens), Q5XKE5 (parent)
chain: MRSSVSRQTYSTKGGFSSNSASGGSGSQARTSFSSVTVSRSSGSGGGAHCGPGTGGFGSRSLYNLGGHKSISVSVAGGALLGRALGGFGFGSRAFMGQGAGRQTFGPACPPGGIQEVTVNQSLLTPLHVEIDPEIQRVRTQEREQIKTLNNKFASFIDKVRFLEQQNKVLETKWALLQEQGQNLGVTRNNLEPLFEAYLGSMRSTLDRLQSERGRLDSELRNVQDLVEDFKNKYEDEINKHTAAENEFVVLKKDVDAAYMGRMDLHGKVGTLTQEIDFLQQLYEMELSQVQTHVSNTNVVLSMDNNRNLDLDSIIAEVKAQYELIAQRSRAEAEAWYQTKYEELQVTAGKHGDNLRDTKNEIAELTRTIQRLQGEADAAKKQCQQLQTAIAEAEQRGELALKDAQKKLGDLDVALHQAKEDLTRLLRDYQELMNVKLALDVEIATYRKLLESEESRMSGECPSAVSISVTGNSTTVCGGGAASFGGGISLGGSGGATKGGFSTNVGYSTVKGGPVSAGTSILRKTTTVKTSSQRY
partner: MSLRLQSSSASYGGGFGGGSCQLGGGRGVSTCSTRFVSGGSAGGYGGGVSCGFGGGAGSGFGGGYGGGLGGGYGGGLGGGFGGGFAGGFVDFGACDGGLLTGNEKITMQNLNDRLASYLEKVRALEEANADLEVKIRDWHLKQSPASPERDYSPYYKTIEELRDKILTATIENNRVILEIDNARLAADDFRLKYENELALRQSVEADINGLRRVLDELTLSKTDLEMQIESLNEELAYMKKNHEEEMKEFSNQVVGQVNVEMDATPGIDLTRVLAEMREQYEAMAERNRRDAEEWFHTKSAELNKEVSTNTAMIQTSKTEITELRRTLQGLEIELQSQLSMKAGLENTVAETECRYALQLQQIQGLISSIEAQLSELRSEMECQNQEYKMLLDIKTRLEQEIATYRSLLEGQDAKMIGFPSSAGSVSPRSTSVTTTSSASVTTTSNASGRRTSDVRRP
B4: Protein LDOC1 (Homo sapiens), O95751 (parent)
chain: MVDELVLLLHALLMRHRALSIENSQLMEQLRLLVCERASLLRQVRPPSCPVPFPETFNGESSRLPEFIVQTASYMLVNENRFCNDAMKVAFLISLLTGEAEEWVVPYIEMDSPILGDYRAFLDEMKQCFGWDDDEDDDDEEEEDDY

In the first assay the parent is B1. The settings on record: with gpkow_human GPKOW.
As for P148L, the “effect of a mutation on the interaction” value is listed as “with no effect”.

A further assay covers variants of B2. Particulars: with dtnb_human DTNB.
In the case of V91I, the “effect of a mutation on the interaction” value is “with no effect”.

Variants of B3 are the subject of a further assay. Particulars: with KRT13, P13646.
Regarding H266R, the “effect of a mutation on the interaction” value is “with no effect”.

R213W: the “effect of a mutation on the interaction” value is reported as “with no effect”.

With R161Q, the “effect of a mutation on the interaction” value was “with no effect”.

Turning to R30C, the “effect of a mutation on the interaction” value is “with no effect”.

For the variant G86E, the “effect of a mutation on the interaction” value was “with no effect”.

In the case of D217Y, the “effect of a mutation on the interaction” value was “with no effect”.

The variants in a further assay derive from B4. Particulars: with ch033_human C8orf33, Q9H7E9.
ch033_human C8orf33, Q9H7E9, sequence (Q9H7E9 whole entry): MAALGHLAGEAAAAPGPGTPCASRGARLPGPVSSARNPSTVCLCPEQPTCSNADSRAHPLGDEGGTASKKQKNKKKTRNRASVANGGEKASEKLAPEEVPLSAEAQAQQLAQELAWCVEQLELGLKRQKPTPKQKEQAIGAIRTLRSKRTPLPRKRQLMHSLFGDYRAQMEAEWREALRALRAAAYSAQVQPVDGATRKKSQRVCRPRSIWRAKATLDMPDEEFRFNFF
Regarding L12H, the “effect of a mutation on the interaction” value was “with no effect”.

The variants in the next assay derive from B4. The settings on record: with KRT15, P19012.
KRT15, P19012, sequence (P19012 whole entry): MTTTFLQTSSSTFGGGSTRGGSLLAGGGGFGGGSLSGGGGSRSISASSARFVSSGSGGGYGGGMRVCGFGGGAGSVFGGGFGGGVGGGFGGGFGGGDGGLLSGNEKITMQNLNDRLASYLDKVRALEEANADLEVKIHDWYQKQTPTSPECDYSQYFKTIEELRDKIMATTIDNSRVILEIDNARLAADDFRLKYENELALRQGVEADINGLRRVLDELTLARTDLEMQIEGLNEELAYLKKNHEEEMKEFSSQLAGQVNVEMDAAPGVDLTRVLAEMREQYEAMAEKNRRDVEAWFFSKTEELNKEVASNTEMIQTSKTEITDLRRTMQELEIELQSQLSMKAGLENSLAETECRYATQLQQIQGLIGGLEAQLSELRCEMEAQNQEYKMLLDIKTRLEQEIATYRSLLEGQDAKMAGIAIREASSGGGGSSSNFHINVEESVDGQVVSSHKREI
Consider L12H, for which the “effect of a mutation on the interaction” value was “with no effect”.

The variants in another assay derive from B4. The settings on record: with atf4_human ATF4, P18848.
atf4_human ATF4, P18848, sequence (P18848 whole entry): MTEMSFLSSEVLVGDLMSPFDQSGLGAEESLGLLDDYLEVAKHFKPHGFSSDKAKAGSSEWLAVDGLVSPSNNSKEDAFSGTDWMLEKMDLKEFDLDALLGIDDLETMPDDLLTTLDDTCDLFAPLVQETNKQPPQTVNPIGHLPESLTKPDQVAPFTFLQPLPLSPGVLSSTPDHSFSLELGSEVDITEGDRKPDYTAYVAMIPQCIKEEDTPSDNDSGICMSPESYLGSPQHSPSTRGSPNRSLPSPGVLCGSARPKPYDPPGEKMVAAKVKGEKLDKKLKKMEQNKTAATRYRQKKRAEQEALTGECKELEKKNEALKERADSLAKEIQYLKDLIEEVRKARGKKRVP
Turning to L12H, the “effect of a mutation on the interaction” value was “with no effect”.

The variants in a further assay derive from B4. The settings on record: with bard1_human BARD1, Q99728.
bard1_human BARD1, Q99728, sequence (Q99728 whole entry): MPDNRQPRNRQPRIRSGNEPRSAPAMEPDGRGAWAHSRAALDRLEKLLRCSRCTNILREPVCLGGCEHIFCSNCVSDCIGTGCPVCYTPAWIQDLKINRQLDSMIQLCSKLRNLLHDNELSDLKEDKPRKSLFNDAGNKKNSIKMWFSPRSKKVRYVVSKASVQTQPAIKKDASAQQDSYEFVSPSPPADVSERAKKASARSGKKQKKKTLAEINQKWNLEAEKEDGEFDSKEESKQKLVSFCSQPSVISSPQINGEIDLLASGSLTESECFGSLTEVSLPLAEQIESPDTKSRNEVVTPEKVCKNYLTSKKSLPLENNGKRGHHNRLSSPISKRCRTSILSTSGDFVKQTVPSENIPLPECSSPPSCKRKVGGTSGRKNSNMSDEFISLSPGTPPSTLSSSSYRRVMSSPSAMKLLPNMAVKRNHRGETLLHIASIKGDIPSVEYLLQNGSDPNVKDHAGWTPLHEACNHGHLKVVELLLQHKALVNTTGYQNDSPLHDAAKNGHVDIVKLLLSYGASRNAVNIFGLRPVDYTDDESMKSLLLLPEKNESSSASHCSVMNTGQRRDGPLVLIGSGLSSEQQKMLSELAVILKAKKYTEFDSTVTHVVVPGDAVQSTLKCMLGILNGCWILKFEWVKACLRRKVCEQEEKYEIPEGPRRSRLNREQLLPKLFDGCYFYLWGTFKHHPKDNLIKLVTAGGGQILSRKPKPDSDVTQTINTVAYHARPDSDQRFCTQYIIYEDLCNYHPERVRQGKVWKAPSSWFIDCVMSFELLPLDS
Regarding L12H, the “effect of a mutation on the interaction” value was “disrupting interaction strength”.

The next assay covers variants of B4. Particulars: with prp31_human PRPF31, Q8WWY3.
prp31_human PRPF31, Q8WWY3, sequence (Q8WWY3 whole entry): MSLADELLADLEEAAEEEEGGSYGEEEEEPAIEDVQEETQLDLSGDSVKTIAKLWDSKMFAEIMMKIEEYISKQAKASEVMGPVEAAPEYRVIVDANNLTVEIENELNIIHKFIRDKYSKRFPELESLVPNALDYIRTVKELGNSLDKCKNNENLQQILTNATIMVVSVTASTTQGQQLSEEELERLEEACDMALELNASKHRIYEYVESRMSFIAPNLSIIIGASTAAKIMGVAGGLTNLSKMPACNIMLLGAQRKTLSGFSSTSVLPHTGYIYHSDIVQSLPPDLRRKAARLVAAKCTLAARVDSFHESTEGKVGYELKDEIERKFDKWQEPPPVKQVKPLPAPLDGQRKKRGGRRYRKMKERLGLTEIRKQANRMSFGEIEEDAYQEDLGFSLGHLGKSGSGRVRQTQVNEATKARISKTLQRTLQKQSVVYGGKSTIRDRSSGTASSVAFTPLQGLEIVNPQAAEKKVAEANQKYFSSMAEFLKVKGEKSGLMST
As for L12H, the “effect of a mutation on the interaction” value is “disrupting interaction strength”.

The variants in a further assay derive from B4. Particulars: with prc1_human PRC1, O43663.
On to L12H, for which the “effect of a mutation on the interaction” value was “disrupting interaction strength”.

Another assay covers variants of B4. Particulars: with zbt24_human ZBTB24, O43167.
Consider L12H, for which the “effect of a mutation on the interaction” value is recorded as “disrupting interaction strength”.

In a further assay the parent is B4. The settings on record: with vatg1_human ATP6V1G1, O75348.
vatg1_human ATP6V1G1, O75348, sequence (O75348 whole entry): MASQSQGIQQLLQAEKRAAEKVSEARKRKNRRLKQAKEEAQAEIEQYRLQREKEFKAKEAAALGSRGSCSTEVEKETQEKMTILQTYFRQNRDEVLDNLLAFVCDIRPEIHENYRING
In the case of L12H, the “effect of a mutation on the interaction” value was “disrupting interaction strength”.

The variants in a further assay derive from B4. The settings on record: with exoc7_human EXOC7, Q9UPT5.
Regarding L12H, the “effect of a mutation on the interaction” value was “disrupting interaction strength”.

The next assay covers variants of B4. Particulars: with tha10_human THAP10, Q9P2Z0.
tha10_human THAP10, Q9P2Z0, sequence (Q9P2Z0 whole entry): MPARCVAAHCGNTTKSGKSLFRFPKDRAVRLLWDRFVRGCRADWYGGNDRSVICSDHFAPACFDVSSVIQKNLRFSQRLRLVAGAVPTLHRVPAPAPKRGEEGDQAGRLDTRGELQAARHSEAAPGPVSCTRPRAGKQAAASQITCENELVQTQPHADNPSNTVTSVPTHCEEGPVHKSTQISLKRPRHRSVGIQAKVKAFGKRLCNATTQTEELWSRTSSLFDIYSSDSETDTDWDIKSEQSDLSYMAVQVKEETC
For the variant L12H, the “effect of a mutation on the interaction” value is given as “disrupting interaction strength”.

A further assay covers variants of B4. Particulars: with zn250_human ZNF250, P15622.
zn250_human ZNF250, P15622, sequence (P15622 whole entry): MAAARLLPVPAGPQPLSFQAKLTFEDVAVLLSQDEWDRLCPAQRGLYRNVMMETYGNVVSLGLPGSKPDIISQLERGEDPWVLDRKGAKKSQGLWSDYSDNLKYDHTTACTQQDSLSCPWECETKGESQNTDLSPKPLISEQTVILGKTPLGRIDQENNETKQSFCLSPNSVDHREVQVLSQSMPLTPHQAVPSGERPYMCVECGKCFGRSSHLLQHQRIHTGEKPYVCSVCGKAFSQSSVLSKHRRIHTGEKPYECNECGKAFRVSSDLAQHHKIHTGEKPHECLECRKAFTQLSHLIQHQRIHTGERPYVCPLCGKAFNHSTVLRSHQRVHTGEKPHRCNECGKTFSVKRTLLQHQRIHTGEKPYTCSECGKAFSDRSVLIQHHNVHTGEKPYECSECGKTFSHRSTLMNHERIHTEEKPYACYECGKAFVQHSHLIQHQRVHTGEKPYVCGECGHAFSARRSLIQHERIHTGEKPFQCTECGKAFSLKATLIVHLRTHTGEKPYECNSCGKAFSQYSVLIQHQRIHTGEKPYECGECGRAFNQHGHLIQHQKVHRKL
Consider L12H, for which the “effect of a mutation on the interaction” value was “disrupting interaction strength”.

Another assay covers variants of B4. The settings on record: with smrd1_human SMARCD1, Q96GM5.
smrd1_human SMARCD1, Q96GM5, sequence (Q96GM5 whole entry): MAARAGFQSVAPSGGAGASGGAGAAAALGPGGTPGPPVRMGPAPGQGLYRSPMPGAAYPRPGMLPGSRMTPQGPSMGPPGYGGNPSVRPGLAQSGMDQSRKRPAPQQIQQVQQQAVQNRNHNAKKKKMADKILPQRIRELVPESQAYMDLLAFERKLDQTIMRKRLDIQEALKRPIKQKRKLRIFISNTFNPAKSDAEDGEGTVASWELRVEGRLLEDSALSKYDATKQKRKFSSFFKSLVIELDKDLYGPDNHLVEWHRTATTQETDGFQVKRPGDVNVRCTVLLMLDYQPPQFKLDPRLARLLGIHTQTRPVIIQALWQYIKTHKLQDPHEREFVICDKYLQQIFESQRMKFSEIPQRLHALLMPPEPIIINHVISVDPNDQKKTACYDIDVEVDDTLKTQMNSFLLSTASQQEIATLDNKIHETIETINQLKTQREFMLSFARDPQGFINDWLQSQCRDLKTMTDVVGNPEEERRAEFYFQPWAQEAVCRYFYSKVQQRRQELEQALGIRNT
For L12H, the “effect of a mutation on the interaction” value was “disrupting interaction strength”.

Another assay covers variants of B4. The settings on record: with mmta2_human MMTAG2, Q9BU76.
mmta2_human MMTAG2, Q9BU76, sequence (Q9BU76 whole entry): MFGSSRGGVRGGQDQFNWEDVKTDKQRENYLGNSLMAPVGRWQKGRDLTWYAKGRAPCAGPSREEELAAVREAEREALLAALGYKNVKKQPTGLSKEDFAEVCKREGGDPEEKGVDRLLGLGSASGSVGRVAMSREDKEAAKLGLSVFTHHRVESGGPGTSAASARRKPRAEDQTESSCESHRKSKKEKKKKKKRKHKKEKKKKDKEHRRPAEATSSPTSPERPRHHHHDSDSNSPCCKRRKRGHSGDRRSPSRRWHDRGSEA
Take L12H: the “effect of a mutation on the interaction” value is “disrupting interaction strength”.

The variants in the next assay derive from B4. The settings on record: with tnnt1_human TNNT1, P13805.
tnnt1_human TNNT1, P13805, sequence (P13805 whole entry): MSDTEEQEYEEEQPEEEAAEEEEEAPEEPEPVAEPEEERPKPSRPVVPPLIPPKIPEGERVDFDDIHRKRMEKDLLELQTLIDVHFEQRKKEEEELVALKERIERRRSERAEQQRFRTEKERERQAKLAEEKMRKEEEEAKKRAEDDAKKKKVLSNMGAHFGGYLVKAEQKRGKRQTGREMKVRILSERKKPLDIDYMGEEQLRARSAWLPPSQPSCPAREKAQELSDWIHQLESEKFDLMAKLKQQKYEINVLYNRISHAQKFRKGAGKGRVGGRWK
With L12H, the “effect of a mutation on the interaction” value is recorded as “disrupting interaction strength”.

Another assay covers variants of B4. The settings on record: with aebp2_human AEBP2, Q6ZN18.
aebp2_human AEBP2, Q6ZN18, sequence (Q6ZN18 whole entry): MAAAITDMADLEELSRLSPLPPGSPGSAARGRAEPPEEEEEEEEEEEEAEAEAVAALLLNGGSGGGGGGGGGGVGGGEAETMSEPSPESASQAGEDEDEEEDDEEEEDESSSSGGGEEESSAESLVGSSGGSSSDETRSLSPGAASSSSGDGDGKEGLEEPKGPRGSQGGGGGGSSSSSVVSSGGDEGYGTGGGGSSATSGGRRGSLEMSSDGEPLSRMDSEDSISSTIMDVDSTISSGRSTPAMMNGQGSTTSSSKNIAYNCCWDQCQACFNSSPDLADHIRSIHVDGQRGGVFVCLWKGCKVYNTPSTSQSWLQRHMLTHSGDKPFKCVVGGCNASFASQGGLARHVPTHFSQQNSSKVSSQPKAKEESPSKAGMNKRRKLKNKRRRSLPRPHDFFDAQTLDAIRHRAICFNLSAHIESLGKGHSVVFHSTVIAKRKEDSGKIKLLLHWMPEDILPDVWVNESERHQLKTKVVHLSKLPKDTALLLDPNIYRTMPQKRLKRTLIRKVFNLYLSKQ
As to L12H, the “effect of a mutation on the interaction” value is “with no effect”.
